Measurements taken from article doi:10.1101/2024.09.19.614015 (bioRxiv, 2024).

Legend:
[1] = molecular target: the molecule itself; assay: crystal structure
[2] = molecular target: Staphylococcus aureus O-acetyl-L-serine sulfhydrylase (CysK) (S. aureus) (UniProt P63871); assay: SPR

Binder | stoichiometry N [1] | Kd [2] [µM]
Staphylococcus aureus O-acetyl-L-serine sulfhydrylase (CysK) (enzyme, S. aureus, UniProt P63871 1-310, looked up, PLP cofactor in a Schiff base linkage with the ε-amino group of K46) MAQKPVDNITQIIGGTPVVKLRNVVDDNAADVYVKLEYQNPGGSVKDRIALAMIEKAEREGKIKPGDTIVEPTSGNTGIGLAFVCAAKGYKAVFTMPETMSQERRNLLKAYGAELVLTPGSEAMKGAIKKAKELKEEHGYFEPQQFENPANPEVHELTTGPELLQQFEGKTIDAFLAGVGTGGTLSGVGKVLKKEYPNIEIVAIEPEASPVLSGGEPGPHKLQGLGAGFIPGTLNTEIYDSIIKVGNDTAMEMSRRVAKEEGILAGISSGAAIYAAIQKAKELGKGKTVVTVLPSNGERYLSTPLYSFDD | 2 | –
MFYI [CymR 4] | – | 4.1
